From PMC2275077 (Nucleic Acids Research, 2008) come the findings set out here.

This experiment addresses T1, TAP-tagged HMO1 (S. cerevisiae, UniProt Q03973 1-246).
T1 sequence: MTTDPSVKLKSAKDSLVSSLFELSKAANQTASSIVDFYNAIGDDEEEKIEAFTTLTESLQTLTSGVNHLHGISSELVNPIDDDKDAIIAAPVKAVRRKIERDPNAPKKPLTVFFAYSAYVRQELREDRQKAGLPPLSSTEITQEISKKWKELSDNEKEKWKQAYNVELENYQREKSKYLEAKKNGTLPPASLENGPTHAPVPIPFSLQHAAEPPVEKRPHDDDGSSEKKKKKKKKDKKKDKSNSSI
Briefly: TAP purification with immunoblot. A general note: In western blotting, separated proteins are transferred to a membrane and probed.

B1: TAF1 (natural protein)
chain: MVKQQGSGKTNLANEDEAYEAIFGGEFGSLEIGSYIGGDEGANSKDYTEHLPDAVDFEDEDELADDDDDLPEESDANLHPAMMTMGAYDDVNENGAVLGIDSNSLNMQLPEINGDLSQQFILEDDGGTPATSNALFMGMDANEIHLATETGVLDGSGANEIGHSQLSIGGVNGNDMSINGGFIMEPDMSDGKHKKATKLDLINHEKYLLKKYFPDFEKGKILKWNKLIYRRSVPYHWHSEISRVKKPFMPLNLKFKVQQDDKRLFNSRTISYVAPIYQGKNNLLQSNSSASRRGLIHVSIDELFPIKEQQKKRKIIHDEKTISEDLLIATDDWDQEKIINQGTSSTATLADSSMTPNLKFSGGYKLKSLIEDVAEDWQWDEDMIIDAKLKESKHAELNMNDEKLLLMIEKTNNLAQQKQQLDSSNLILPLNETILQQKFNLSNDDKYQILKKTHQTKVRSTISNLNIQHSQPAINLQSPFYKVAVPRYQLRHFHRENFGSHIRPGTKIVFSKLKARKRKRDKGKDVKESFSTSQDLTIGDTAPVYLMEYSEQTPVALSKFGMANKLINYYRKANEQDTLRPKLPVGETHVLGVQDKSPFWNFGFVEPGHIVPTLYNNMIRAPVFKHDISGTDFLLTKSSGFGISNRFYLRNINHLFTVGQTFPVEEIPGPNSRKVTSMKATRLKMIIYRILNHNHSKAISIDPIAKHFPDQDYGQNRQKVKEFMKYQRDGPEKGLWRLKDDEKLLDNEAVKSLITPEQISQVESMSQGLQFQEDNEAYNFDSKLKSLEENLLPWNITKNFINSTQMRAMIQIHGVGDPTGCGEGFSFLKTSMKGGFVKSGSPSSNNNSSNKKGTNTHSYNVAQQQKAYDEEIAKTWYTHTKSLSISNPFEEMTNPDEINQTNKHVKTDRDDKKILKIVRKKRDENGIIQRQTIFIRDPRVIQGYIKIKEQDKEDVNKLLEEDTSKINNLEELEKQKKLLQLELANLEKSQQRRAARQNSKRNGGATRTENSVDNGSDLAGVTDGKAARNKGKNTTRRCATCGQIGHIRTNKSCPMYSSKDNPASPK
With B1, the “percent recovered with HMO1-TAP” value was ~0.01%.

B2: TAF11 (natural protein)
chain: MTEPQGPLDTIPKVNYPPILTIANYFSTKQMIDQVISEDQDYVTWKLQNLRTGGTSINNQLNKYPKYKYQKTRINQQDPDSINKVPENLIFPQDILQQQTQNSNYEDTNTNEDENEKLAQDEQFKLLVTNLDKDQTNRFEVFHRTSLNKTQVKKLASTVANQTISENIRVFLQAVGKIYAGEIIELAMIVKNKWLTSQMCIEFDKRTKIGYKLKKYLKKLTFSIIENQQYKQDYQSDSVPEDEPDFYFDDEEVDKRETTLGNSLLQSKSLQQSDHNSQDLKLQLIEQYNKLVLQFNKLDVSIEKYNNSPLLPEHIREAWRLYRLQSDTLPNAYWRTQGEGQGSMFR
In the case of B2, the “percent recovered with HMO1-TAP” value was ~0.01%.
